B1: F1*; the commonest letter at each place (parent)
chain: GAGACCGCAACTGAAAAGTTGTTATCACTTGTCGTAAGACACTTTGGATGGGTTGAAGTTCTGCACGTAGAAGCAAAAGGC

Variants of: B1
Experiment: fraction ligated after 30 min (ligated reads / total reads); higher = more ligase activity
Details: with F1*sub RNA substrate (template-directed ligation), 42 °C
In short: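 The ligase ribozyme variants were produced by PCR amplification of oligo-pool templates, T7 transcription and purification on gel. Their ligated and unligated forms were gel-separated, then reverse transcribed with barcoded primers before MiSeq sequencing. Core bases were filtered at a quality of ≥20, and fraction ligated per variant was ligated reads over total reads.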

| Variant | fraction ligated |
| --- | --- |
| G47C G50C | 0.0335 |
| G47C G50A | 0.059 |
| G47C G50T | 0.202 |
| G46T T49C | 0.148 |
| G46T T49G | 0.277 |
| G46T T49A | 0.192 |
| T49G G50T | 0.667 |
| T49G G50C | 0.0713 |
| T49G G50A | 0.388 |
| A48G G50A | 0.118 |
| A48G G50T | 0.235 |
| A48G G50C | 0.0771 |
| A48G A56T | 0.357 |
| A48G A56C | 0.259 |
| A48G A56G | 0.399 |
| G47A A48G | 0.61 |
| G47A A48T | 0.803 |
| G47A A48C | 0.723 |
| A48C G50T | 0.309 |
| A48C G50C | 0.17 |
| A48C G50A | 0.148 |
| T45G G55T | 0.0383 |
| T45G G55C | 0.0194 |
| T45G G55A | 0.045 |

| Variant | fraction ligated |
| --- | --- |
| A48T T49A | 0.565 |
| A48T T49C | 0.139 |
| A48T T49G | 0.348 |
| T45G G47C | 0.194 |
| T45G G47A | 0.781 |
| T45G G47T | 0.0452 |
| G50C A57G | 0.104 |
| G50C A57T | 0.0648 |
| G50C A57C | 0.033 |
| G47A G50A | 0.381 |
| G47A G50T | 0.657 |
| G47A G50C | 0.386 |
| T49A A56G | 0.116 |
| T49A A56C | 0.102 |
| T49A A56T | 0.209 |
| G46C A56C | 0.324 |
| G46C A56T | 0.447 |
| G46C A56G | 0.315 |
| A48C T49C | 0.335 |
| A48C T49A | 0.555 |
| A48C T49G | 0.763 |
| G46T A48G | 0.352 |
| G46T A48T | 0.144 |
| G46T A48C | 0.127 |

| Variant | fraction ligated |
| --- | --- |
| A48T A57T | 0.546 |
| A48T A57C | 0.68 |
| A48T A57G | 0.787 |
| G55A A56G A57G | 0.338 |
| G55A A56G A57C | 0.131 |
| G55A A56G A57T | 0.152 |
| A48T G50T | 0.392 |
| A48T G50A | 0.158 |
| A48T G50C | 0.0873 |
| G50A A56G | 0.0277 |
| G50A A56T | 0.0351 |
| G50A A56C | 0.0252 |
| T49C A57C | 0.266 |
| T49C A57G | 0.445 |
| T49C A57T | 0.3 |
| G46C A48G | 0.191 |
| G46C A48C | 0.621 |
| G46C A48T | 0.0498 |
| A48T A56C | 0.0454 |
| A48T A56T | 0.0621 |
| A48T A56G | 0.0654 |
| G46A G55A | 0.786 |
| G46A G55T | 0.783 |
| G46A G55C | 0.224 |

| Variant | fraction ligated |
| --- | --- |
| G47T T49C | 0.0788 |
| G47T T49G | 0.261 |
| G47T T49A | 0.0948 |
| T45A A57C | 0.773 |
| T45A A57G | 0.752 |
| T45A A57T | 0.794 |
| A48T | 0.768 |
| A48G | 0.794 |
| A48C | 0.752 |
| G47T A56C | 0.0301 |
| G47T A56T | 0.0333 |
| G47T A56G | 0.0352 |
| T45C G55T | 0.134 |
| T45C G55C | 0.0438 |
| T45C G55A | 0.521 |
| G47C T49C | 0.0543 |
| G47C T49G | 0.0669 |
| G47C T49A | 0.0759 |
| T53A | 0.834 |
| T53C | 0.849 |
| T53G | 0.831 |
| G46T G50C | 0.0286 |
| G46T G50T | 0.148 |
| G46T G50A | 0.0502 |

| Variant | fraction ligated |
| --- | --- |
| G50T A57C | 0.172 |
| G50T A57T | 0.324 |
| G50T A57G | 0.526 |
| G46C | 0.804 |
| G46A | 0.812 |
| G46T | 0.791 |
| T45C G46A | 0.127 |
| T45C G46T | 0.263 |
| T45C G46C | 0.268 |
| G47C A48G | 0.122 |
| G47C A48T | 0.257 |
| G47C A48C | 0.168 |
| G50T A56C | 0.0586 |
| G50T A56G | 0.0624 |
| G50T A56T | 0.0827 |
| G47A T49C | 0.773 |
| G47A T49G | 0.798 |
| G47A T49A | 0.806 |
| G46A T49A | 0.501 |
| G46A T49G | 0.627 |
| G46A T49C | 0.38 |
| T45C A57C | 0.785 |
| T45C A57G | 0.812 |
| T45C A57T | 0.777 |

| Variant | fraction ligated |
| --- | --- |
| G46C G50C | 0.0426 |
| G46C G50T | 0.165 |
| G46C G50A | 0.0524 |
| T45A G46T | 0.403 |
| T45A G46A | 0.178 |
| T45A G46C | 0.0374 |
| T45C T49C | 0.0485 |
| T45C T49A | 0.0409 |
| T45C T49G | 0.0625 |
| T45C G47T | 0.379 |
| T45C G47A | 0.366 |
| T45C G47C | 0.31 |
| T45G | 0.385 |
| T45C | 0.74 |
| A48T G55A | 0.515 |
| A48T G55T | 0.17 |
| A48T G55C | 0.0233 |
| A48G T49C | 0.504 |
| A48G T49G | 0.752 |
| A48G T49A | 0.678 |
| T45C G50T | 0.0706 |
| T45C G50C | 0.0165 |
| T45C G50A | 0.0234 |
| T49C A56T | 0.0726 |

| Variant | fraction ligated |
| --- | --- |
| T49C A56C | 0.0481 |
| T49C A56G | 0.0622 |
| T49C G50T | 0.714 |
| T49C G50A | 0.216 |
| T49C G50C | 0.455 |
| G50C G55C | 0.0221 |
| G50C G55A | 0.112 |
| G50C G55T | 0.0259 |
| T45G A57T | 0.8 |
| T45G A57G | 0.769 |
| T45G A57C | 0.791 |
| G47C G55A | 0.11 |
| G47C G55T | 0.0996 |
| G47C G55C | 0.0788 |
| G47T G50T | 0.108 |
| G47T G50A | 0.0507 |
| G47T G50C | 0.048 |
| G47A A57G | 0.774 |
| G47A A57C | 0.703 |
| G47A A57T | 0.77 |
| G46T G55A | 0.726 |
| G46T G55C | 0.111 |
| G46T G55T | 0.482 |

Source: the supplement of paper PMC6755084
